According to publication PMC4663749, “Structure of Mycobacterium thermoresistibile GlgE defines novel conformational states that contribute to the catalytic mechanism” (Scientific Reports, 2015):

Molecular target: the molecule itself
Experiment: crystal structure; three structures of GlgE (apo form, maltose co-crystallization, maltose-1P co-crystallization); sitting-drop vapour diffusion at 291 K, ~7 mg/ml protein; one dimer per asymmetric unit

B1: Mycobacterium thermoresistibile GlgE (enzyme, UniProt G7CL00 1-696, looked up)
chain: MAGRIVIDDVQPVVSNGRYPAKAVVGEVVPVAATVWREGHDAVAATLVVRYHGTTYPDLADPPPGVPGADRTAVPIGDVMTPAAPVKPQRLPMSPGHTPDVFHGHFTPDRVGLWTYRVDGWGDPIASWRHNVTAKLDAGQGESELNNDLLVGARLLERAATGVPRELREALLEAAAALRAPGDPFTRAGAALSAEVSDLLAEYPLREFVTRGEQYGVWVDRPEARFSSWYEMFPRSTGGWDAEGRPVHGTFATAAEALPRIARMGFDVVYLPPIHPIGKVHRKGRNNSVTAAPGDVGSPWAIGSDEGGHDAVHPQLGTIEDFDEFVASARDLGLEVALDLALQCAPDHPWAREHPEWFTVLPDGSIAYAENPPKKYQDIYPLNFDNDPAGIYQEVLRVVRFWISHGVNIFRVDNPHTKPPNFWAWLIGQIKNENPDVLFLSEAFTRPARLYGLAKLGFTQSYTYFTWRTSKWELTEFGQEIAAKADIARPNLFVNTPDILHESLQHGGPGMFAIRAVLAATMGPAWGVYSGYELFENQPVRPGSEEYLNSEKYELRPRDFESALARGESLEPFLTRLNEIRRLHPALRELRTIRFHHVDNDALLAYSKFDPGTGDTVLVVVTLNPFGAEEATLWLDMPELGMEPYDRFWVRDEITGEEYQWGQANYVRLDPAKAVAHVLNMPLIPADKRLQLLRRE
notes: GlgE (alpha-1,4-glucan:maltose-1-phosphate maltosyltransferase) of Mycobacterium thermoresistibile DSM 44167; glgE gene amplified from chromosomal DNA with a forward primer that begins at the GTG start codon and a reverse primer that ends at the stop codon; The construct with the cleavable N-terminal SUMO tag gave all crystals; also called maltosyl transferase; source: E. coli BL21(DE3), purified …
stoichiometry N: 2
